Test results as given in publication doi:10.1101/2022.08.19.504503.

Target: Cdh23 with entire EC domains (Cdh23 EC 1-27) (UniProt Q99PF4)
Test: cross-linking

stoichiometry N: 2
Substance: Cdh23 with entire EC domains (Cdh23 EC 1-27) (from UniProt Q99PF4 24-3354) (domain or fragment)
